According to publication PMC5871787:

What was measured:
[1] = target: M3 peptide (complementary 11th β-strand peptide of split GFP); assay: other fluorescence titration; fluorescence complementation kinetics, pseudo-first order: 0.1 µM M3 peptide with 0.1–30 µM total sFP, TN buffer pH 8.0 with 1 mM DTT, 5 mM EDTA, 0.05% CHAPS, 25 °C, 14 hours; kobs1 against the concentration of sFP monomers fitted by a line; binding irreversible
[2] = target: sGFPori (sGFP 1–10 OPT), recombinant; assay: fluorescence polarisation; steady-state fluorescence anisotropy of ReAsH-labelled sFP at 20, 10, 5, 2.5, 1.25 and 0.5 µM, after equilibrium at RT, triplicate; apparent equilibrium constant of dimer formation (monomers to dimer)
[3] = target: sGFPori (sGFP 1–10 OPT), recombinant; assay: SEC; size-exclusion HPLC of purified, non-complemented sFPs at high concentration; sGFP2 (ReAsH-labelled) at 20 µM, concentrations of the other sFPs not stated

kon [1]: 70 M⁻¹ s⁻¹ | Ka [2]: 320000 M⁻¹ | stoichiometry N [3]: 2
Substance: sGFPori (sGFP 1–10 OPT), recombinant (domain or fragment)
